T1: GzmB/MMP AND-gate protease activity sensor
T1 chain: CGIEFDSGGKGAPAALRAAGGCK

B1: Tobacco Etch Virus protease (protein)
chain: GESLFKGPRDYNPISSTICHLTNESDGHTTSLYGIGFGPFIITNKHLFRRNNGTLLVQSLHGVFKVKNTTTLQQHLIDGRDMIIIRMPKDFPPFPQKLKFREPQREERICLVTTNFQTKSMSSMVSDTSCTFPSSDGIFWKHWIQTKDGQCGSPLVSTRDGFIVGIHSASNFTNTNNYFTSVPKNFMELLTNQEAQQWVSGWRLNADSVLWGGHKVFMSKPEEPFQPVKEATQLMNELVYSQ
B2: West Nile Virus NS3 protease (protein)
chain: GGVLWDTPSPKEYKKGDTTTGVYRIMTRGLLGSYQAGAGVMVEGVFHTLWHTTKGAALMSGEGRLDPYWGSVKEDRLCYGGPWKLQHKWNGHDEVQMIVVEPGKNVKNVQTKPGVFKTPEGEIGAVTLDYPTGTSGSPIVDKNGDVIGLYGNGVIMPNGSYISAIVQGERMEEPAPAGFEPEML

Molecular target: T1, GzmB/MMP AND-gate protease activity …

Protein	fluorescent signal in a cleavage assay (AND-gate sensor with GzmB and a second protease)
B1	The sensor produced low signals with the viral proteases compared to MMP8
B2	The sensor produced low signals with the viral proteases compared to MMP8

From patent US12338483
